Test results from patent publication US20210301005A1.

Legend:
[1] = target: human TGFβ2, mature receptor-binding domain (human)
[2] = target: human TGFβ3, mature dimeric form (human) (UniProt P10600)
[3] = target: human TGFβ1, mature receptor-binding domain (human) (UniProt P01137)
[4] = target: human TGFβ3, mature dimeric form (human) (UniProt P10600); remark: listed apart in the source

Chain of human TGFβ3, mature dimeric form (human) (P10600 301-412): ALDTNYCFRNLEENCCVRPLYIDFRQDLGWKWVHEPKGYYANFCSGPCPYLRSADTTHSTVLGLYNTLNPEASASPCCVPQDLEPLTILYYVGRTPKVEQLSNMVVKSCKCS
Chain of human TGFβ2, mature receptor-binding domain (human) (P09858 303-414 limits assumed): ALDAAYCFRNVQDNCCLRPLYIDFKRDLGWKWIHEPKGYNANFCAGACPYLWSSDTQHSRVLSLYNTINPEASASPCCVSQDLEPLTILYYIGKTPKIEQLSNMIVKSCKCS
Chain of human TGFβ1, mature receptor-binding domain (human) (P01137 279-390 limits assumed): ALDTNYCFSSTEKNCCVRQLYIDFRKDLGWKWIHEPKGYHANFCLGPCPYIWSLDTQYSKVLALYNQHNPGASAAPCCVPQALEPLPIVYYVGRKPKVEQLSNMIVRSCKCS

| IC50 [1] | IC50 [2] | IC50 [3] | IC50 (read off the curve) [4] | Binder |
| --- | --- | --- | --- | --- |
| 12400 nM | 2920 nM |  |  | Fc-LAP3 (Fc fusion, not shown: a dimerising Fc or GST) LSTCTTLDFGHIKKKRVEAIRGQILSKLRLTSPPEPTVMTHVPYQVLALYNSTRELLEEMHGEREEGCTQENTESEYYAKEIHKFDMIQGLAEHNELAVCPKGITSKVFRFNVSSVEKNRTNLFRAEFRVLRVPNPSSKRNEQRIELFQILRPDEHIAKQRYIGGKNLPTRGTAEWLSFDVTDTVREWLLRRESNLGLEISIHCPCHTFQPNGDILENIHEVMEIKFKGVDNEDDHGRGDLGRLKKQKDHHNPHLILMMIPPHRLDNPGQGGQRKKR |
| 548 nM | 525 nM | 10100 nM | 0.6 nM | Fc-LAP2 (Fc fusion, not shown: a dimerising Fc or GST) SLSTCSTLDMDQFMRKRIEAIRGQILSKLKLTSPPEDYPEPEEVPPEVISIYNSTRDLLQEKASRRAAACERERSDEEYYAKEVYKIDMPPFFPSENAIPPTFYRPYFRIVRFDVSAMEKNASNLVKAEFRVFRLQNPKARVPEQRIELYQILKSKDLTSPTQRYIDSKVVKTRAEGEWLSFDVTDAVHEWLHHKDRNLGFKISLHCPCCTFVPSNNYIIPNKSEELEARFAGIDGTSTYTSGDQKTIKSTRKKNSGKTPHLLLMLLPSYRLESQQTNRRKKR |
